Test results taken from patent US7879792.
pKi: −log10 of the molar value. Blank lines part the entries; values can stand above or below the substance they belong to.

Key:
[1] = target: human γ-thrombin (human) (UniProt P00734); test: inhibition of γ-thrombin hydrolysis of Sar-Pro-Arg-paranitroanilide; Ki from Ki,app by the procedure of Bieth
[2] = target: recombinant extracellular domain of human PAR4 (rPAR4EC), Gly18-Arg78 (human) (UniProt Q96RI0); test: displacement of 15 µM RPPGFK-biotin from plate-bound rPAR4EC; peptide at 30 µM
[3] = target: recombinant extracellular domain of human PAR4 (rPAR4EC), Gly18-Arg78 (human) (UniProt Q96RI0); test: displacement of 15 µM RPPGFK-biotin from plate-bound rPAR4EC; peptide at 300 µM
[4] = target: recombinant extracellular domain of human PAR4 (rPAR4EC), Gly18-Arg78 (human) (UniProt Q96RI0); test: displacement of 15 µM RPPGFK-biotin from plate-bound rPAR4EC; peptide at 1000 µM
[5] = target: human α-thrombin (human) (UniProt P00734); test: cell-based or functional assay
[6] = target: human α-thrombin (human) (UniProt P00734); test: inhibition of α-thrombin hydrolysis of Sar-Pro-Arg-paranitroanilide; Ki from Ki,app by the procedure of Bieth

pKi [1]: 4.31
Substance: rOicPaF(p-Br) (D-Arg-Oic-Pro-D-Ala-Phe(p-Br)) (peptide)

pKi [1]: 4.23
Substance: rOicPaF(p-I) (D-Arg-Oic-Pro-D-Ala-Phe(p-I)) (peptide)

% of RPPGFK-biotin displaced [2]: 19% | % of RPPGFK-biotin displaced [3]: 49% | % of RPPGFK-biotin displaced [4]: 63% | pKi [1]: 4.27
Substance: rOicPaF(p-Me) (D-Arg-Oic-Pro-D-Ala-Phe(p-Me)) (peptide)

peptide concentration giving significant prolongation (p<0.05) of the APTT of normal human plasma [5]: 50 µM | peptide concentration giving significant prolongation (p<0.05) of the PT of normal human plasma [5]: 6.25 µM | peptide concentration giving significant prolongation (p<0.05) of the TCT of normal human plasma [5]: 1.56 µM | pKi [6]: 4.97 | pKi [1]: 4.06
Substance: rOicPaF(p-NO2) (D-Arg-Oic-Pro-D-Ala-Phe(p-NO2)) (peptide)

pKi [1]: 4.37
Substance: rOicPsF(p-Me) (D-Arg-Oic-Pro-D-Ser-Phe(p-Me)) (peptide)
